Test results reported in patent US20170119861.

Columns and labels:
[1] = biological target: synthetic Aβ40 peptide, P05067
[2] = biological target: synthetic Aβ42 peptide, P05067
[3] = biological target: Aβ40 high molecular weight fibrils, P05067
Sequence of Aβ40 high molecular weight fibrils, P05067 (P05067 whole entry, looked up): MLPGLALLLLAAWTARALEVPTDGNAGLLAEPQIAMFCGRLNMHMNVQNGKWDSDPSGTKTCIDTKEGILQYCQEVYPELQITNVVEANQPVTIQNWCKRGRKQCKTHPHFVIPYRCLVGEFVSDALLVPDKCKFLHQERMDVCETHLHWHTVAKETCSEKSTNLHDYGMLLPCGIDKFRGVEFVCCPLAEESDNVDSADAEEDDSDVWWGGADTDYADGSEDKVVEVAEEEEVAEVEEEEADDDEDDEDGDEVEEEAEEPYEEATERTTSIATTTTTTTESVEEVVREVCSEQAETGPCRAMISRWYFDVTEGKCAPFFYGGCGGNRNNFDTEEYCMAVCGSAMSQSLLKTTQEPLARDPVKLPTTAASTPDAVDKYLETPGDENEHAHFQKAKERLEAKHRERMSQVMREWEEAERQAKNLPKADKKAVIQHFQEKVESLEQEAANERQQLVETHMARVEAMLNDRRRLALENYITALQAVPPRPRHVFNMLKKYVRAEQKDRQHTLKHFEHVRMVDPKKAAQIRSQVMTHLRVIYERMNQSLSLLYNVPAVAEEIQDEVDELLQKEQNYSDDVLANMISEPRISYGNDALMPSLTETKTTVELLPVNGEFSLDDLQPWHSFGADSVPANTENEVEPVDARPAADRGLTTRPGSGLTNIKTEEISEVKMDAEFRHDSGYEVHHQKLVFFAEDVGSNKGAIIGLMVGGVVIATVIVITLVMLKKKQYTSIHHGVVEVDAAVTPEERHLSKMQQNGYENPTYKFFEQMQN

Sequence of synthetic Aβ40 peptide, P05067 (P05067 whole entry, looked up, tested part not stated): as the sequence (P05067 whole entry, looked up) above
Sequence of synthetic Aβ42 peptide, P05067 (P05067 whole entry, looked up, tested part not stated): as the sequence (P05067 whole entry, looked up) above
Sequence of Aβ42 oligomers, P05067 (P05067 whole entry, looked up): as above
Sequence of Aβ42 fibrils, P05067 (P05067 whole entry, looked up): as above

B1: protective protein/cathepsin A (PPCA) (protein)
chain: APDQDEIQRLPGLAKQPSFRQYSGYLKGSGSKHLHYWFVESQKDPENSPVVLWLNGGPGCSSLDGLLTEHGPFLVQPDGVTLEYNPYSWNLIANVLYLESPAGVGFSYSDDKFYATNDTEVAQSNFEALQDFFRLFPEYKNNKLFLTGESYAGIYIPTLAVLVMQDPSMNLQGLAVGNGLSSYEQNDNSLVYFAYYHGLLGNRLWSSLQTHCCSQNKCNFYDNKDLECVTNLQEVARIVGNSGLNIYNLYAPCAGGVPSHFRYEKDTVVVQDLGNIFTRLPLKRMWHQALLRSGDKVRMDPPCTNTTAASTYLNNPYVRKALNIPEQLPQWDMCNFLVNLQYRRLYRSMNSQYLKLLSSQKYQILLYNGDVDMACNFMGDEWFVDSLNQKMEVQRRPWLVKYGDSGEQIAGFVKEFSHIAFLTIKGAGHMVPTDKPLAAFTMFSRFLNKQPY
western blot (E610) of day 9 Aβ42 fibrils after overnight treatment with 90 ng enzyme (Aβ42 fibrils, P05067): resulted in reduction/degradation of the fibril smear as well as degradation of oligomer species (line 4 compared to line 1) | ELISA with C-terminal capture antibody after 2 h incubation of Aβ40 with varying Cath A concentrations [1]: progressively reduced binding of Aβ40 peptide to C-terminal capture antibody with increasing concentration of Cath A | THT aggregation of Aβ40 after pre-incubation with Cath A for up to two hours [1]: Aβ40 peptide did not aggregate after pre-incubation with Cath A | THT aggregation of Aβ40 with simultaneous incubation with Cath A [1]: aggregation of Aβ40 amyloid is not affected by Cath A, in applied experimental settings, even when high concentration of enzyme is used | western blot (A11) of day 9 Aβ42 oligomers after overnight treatment with 90 ng enzyme (Aβ42 oligomers, P05067): resulted in degradation of the lowest oligomer band (line 4) | Aβ42 aggregation by THT assay and western blot [2]: PPCA can efficiently prevent formation of Aβ42 amyloid species | human Aβ42 specific ELISA signal after treatment with 90 ng cathepsin A (0-120 min, 37° C., pH 5.0) [2]: a loss of fluorescent signal already within first 10 min of treatment | western blot of Aβ40 co-incubated with Cath A for up to 9 days during fibril formation [3]: Cath A significantly prevents formation of high molecular weight fibrils
